From paper PMC11368889 (2024)

Biological target: Histone H3 (H3K9me3) (Homo sapiens, UniProt P68431)
Assay: fluorescence microscopy titration in fixed HEK293 cells (Hill1 fit)

- Kd: 490 nM
B1: MPP8-Green (MPP8-mNeonGreen-NLS-MPP8) 55-117 (protein)
chain: GEDVFEVEKILDMKTEGGKVLYKVRWKGYTSDDDTWEPEIHLEDCKEVLLEFRKKIAENKAKA
